{
  "source": "patent US20130142802A1",
  "about": "(published 2013)",
  "binders": {"B1": {"name": "FGFR2 IIIb-Fc (Fc fusion)", "chain": "TLEPEDAISSGDDEDDTDGAEDFVSENSNNKRAPYWTNTEKMEKRLHAVPAANTVKFRCPAGGNPMPTMRWLKNGKEFKQEHRIGGYKVRNQHWSLIMESVVPSDKGNYTCVVENEYGSINHTYHLDVVERSPHRPVLQAGLPANASTVVGGDVEFVCKVYSDAQPHIQWIKHVEKNGSKYGPDGLPYLKVLKHSGINSSNAEVLALFNVTEADAGEYICKVSNYIGQANQSAWLTVLPKQQAPGREKEITASPDYLEDKTHTCPPCPAPELLGGPSVFLFPPKPKDTLYITREPEVTCVVVDVSHEDPEVKFNWYVDGVEVHNAKTKPREEQYNSTYRVVSVLTVLHQDWLNGKEYKCKVSNKALPAPIEKTISKAKGQPREPQVYTLPPSREEMTKNQVSLTCLVKGFYPSDIAVEWESNGQPENNYKTTPPVLDSDGSFFLYSKLTVDKSRWQQGNVFSCSVMHEALKFHYTQKSLSLSPGK", "notes": "also called FGFR2IIIb beta-ECD; FGFR2IIIb-hFc"}},
  "key": {"FGF8b": {"biological_target": "T1, FGF8b (UniProt P55075-3 23-215)", "T1 construct": "Coated on ELISA plates; also called ligand protein FGF8b", "T1 sequence (looked up)": "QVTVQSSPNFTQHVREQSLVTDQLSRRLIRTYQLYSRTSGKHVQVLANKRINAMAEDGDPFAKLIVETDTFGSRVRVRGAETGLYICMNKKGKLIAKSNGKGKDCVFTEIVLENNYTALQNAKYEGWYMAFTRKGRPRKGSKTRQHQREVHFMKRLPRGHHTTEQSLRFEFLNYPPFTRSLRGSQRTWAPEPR", "assay": "ligand binding ELISA (data not shown)"}, "[1]": {"biological_target": "T2, Flag-FGFR2-IIIb expressed on CHO cells (human, UniProt P21802 22-821)", "T2 construct": "whole, on cells; also called CHO-FGFR2-IIIb; FGFR2-IIIb-expressing CHO cells; not shown: Flag-tag at the N-terminus", "T2 chain": "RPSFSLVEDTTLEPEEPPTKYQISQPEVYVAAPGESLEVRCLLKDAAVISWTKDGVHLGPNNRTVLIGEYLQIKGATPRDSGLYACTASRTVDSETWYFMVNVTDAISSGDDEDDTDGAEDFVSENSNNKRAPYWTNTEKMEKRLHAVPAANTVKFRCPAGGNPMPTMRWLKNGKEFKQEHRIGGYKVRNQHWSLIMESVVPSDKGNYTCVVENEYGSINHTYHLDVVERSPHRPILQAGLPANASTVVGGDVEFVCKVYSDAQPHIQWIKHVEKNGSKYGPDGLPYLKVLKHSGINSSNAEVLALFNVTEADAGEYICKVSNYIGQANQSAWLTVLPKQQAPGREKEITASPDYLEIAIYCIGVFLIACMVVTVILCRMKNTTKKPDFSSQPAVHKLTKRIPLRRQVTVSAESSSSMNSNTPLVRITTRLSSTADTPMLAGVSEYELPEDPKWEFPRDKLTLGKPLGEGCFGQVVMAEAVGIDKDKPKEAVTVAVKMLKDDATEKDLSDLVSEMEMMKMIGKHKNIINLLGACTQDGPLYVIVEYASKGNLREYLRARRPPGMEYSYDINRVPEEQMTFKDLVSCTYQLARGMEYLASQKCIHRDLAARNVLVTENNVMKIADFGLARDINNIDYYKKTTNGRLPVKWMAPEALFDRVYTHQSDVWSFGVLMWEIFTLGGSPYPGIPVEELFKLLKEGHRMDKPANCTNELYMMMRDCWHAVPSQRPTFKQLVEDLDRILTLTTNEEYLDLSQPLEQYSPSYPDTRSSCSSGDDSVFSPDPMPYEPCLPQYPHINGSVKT", "assay": "immunocytochemistry on CHO cells"}, "[2]": {"biological_target": "T3, Flag-FGFR2-IIIc expressed on CHO cells (human, UniProt P21802 22-821)", "T3 construct": "whole, on cells; also called CHO-FGFR2-IIIc; CHO-IIIc; not shown: Flag-tag at the N-terminus", "assay": "cell-based binding assay on stable CHO-FGFR2-IIIc cells, method of Beatty et al."}, "[3]": {"biological_target": "T3, Flag-FGFR2-IIIc expressed on CHO cells", "assay": "cell-based binding assay (cell ELISA) on stable CHO-FGFR2-IIIc cells"}, "[4]": {"biological_target": "T4, FGFR2-IIIc (receptor protein of FIG. 52C) (UniProt P21802 152-377, limits assumed)", "assay": "ELISA with biotinylated Atto-HuMab-01; the receptor concentration is varied (x axis: FGFR receptor concentration, nM)"}, "[5]": {"biological_target": "T4, FGFR2-IIIc (receptor protein of FIG. …)", "assay": "binding curves of biotinylated antibody on FGF receptors (FIG. 52C), format not told; biotinylated antibody, FIG. 52C receptor panel"}, "human ferritin (Fer) [6]": {"biological_target": "T5, human ferritin (Fer) (human, UniProt P02794 2-183; P02792 2-175, Natural ferritin is a 24-subunit shell of H and L chains in a tissue-dependent ratio, with an iron core. The letters carry one copy of each subunit.)", "T5 construct": "also called Feritin", "assay": "phage ELISA on coated protein"}, "[7]": {"biological_target": "T6, 128AA-mFc (128-amino acid loop-3 fragment of FGFR2IIIc fused to mouse Fc) (human)", "T6 chain": "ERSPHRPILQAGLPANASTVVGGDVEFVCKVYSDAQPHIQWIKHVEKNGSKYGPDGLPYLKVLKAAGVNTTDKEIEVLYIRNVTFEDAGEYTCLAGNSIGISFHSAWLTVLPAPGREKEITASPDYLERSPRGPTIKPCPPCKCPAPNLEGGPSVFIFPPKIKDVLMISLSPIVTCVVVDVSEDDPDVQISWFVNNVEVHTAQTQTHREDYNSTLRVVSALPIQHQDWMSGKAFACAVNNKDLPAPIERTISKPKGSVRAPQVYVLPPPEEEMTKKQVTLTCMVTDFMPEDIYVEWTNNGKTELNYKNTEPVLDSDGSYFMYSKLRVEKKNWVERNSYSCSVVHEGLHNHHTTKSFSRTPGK", "assay": "phage ELISA on coated protein"}, "human ovalbumin (OA)": {"biological_target": "human ovalbumin (OA) (human)", "assay": "phage ELISA on coated protein"}, "human ferritin (Fer) [8]": {"biological_target": "T5, human ferritin (Fer)", "assay": "phage ELISA on coated protein", "remark": "listed apart in the source"}, "[9]": {"biological_target": "T2, Flag-FGFR2-IIIb expressed on CHO cells", "assay": "immunocytochemical staining of CHO cells transiently expressing FGFR2IIIb"}, "FGFR2 IIIb-Fc": {"biological_target": "B1", "assay": "phage ELISA, plate coated with FGFR2 IIIb Fc fusion (whole extracellular domain)"}},
  "data": [
    {"binder": "B1", "values": [
      {"measurement": "binding result", "setting": "FGF8b", "value": "no binding"}
    ]},
    {"binder": "Atto-HuMab-01 (full-length human IgG1) (antibody, V domains shown, also called Atto-01) VH: QVQLVQSGAEVKKPGSSVKVSCKASGGTFSSYAISWVRQAPGQGLEWMGRIIPIFGTANYAQKFQGRVTITADESTSTAYMELNSLRSEDTAVYYCARDRWDWNDAFDIWGQGTMVTVSS VL: not shown", "values": [
      {"measurement": "binding result", "setting": "[1]", "value": "no binding (tested: 1ug/ml)"},
      {"measurement": "Kd", "setting": "[2]", "value": 0.7, "unit": "nM"},
      {"measurement": "EC50 (read off the curve)", "setting": "[3]", "value": "~0.4", "unit": "nM"},
      {"measurement": "EC50 (read off the curve)", "setting": "[4]", "value": "~0.2", "unit": "nM"},
      {"measurement": "Kd", "setting": "[5]", "value": "~0.2", "unit": "nM"}
    ]},
    {"binder": "human scFv clone 8, phage-displayed (scFv, also called scFv-8; Atto-HuMab-08) scFv: QSVLTQPPSVSAAPGQKVTISCSGSSSNIGNNYVSWYQQLPGTAPKLLIYDNNKRPSGIPDRFSGSKSGTSATLAISGLQSEDEADYYCAAWDDSLNGVVFGGGTKLTVLGSGGSTITSYNVYYTKLSSSGTQVQLVQSGAEVKKPGSSVKVSCKASGGTFSSYAISWVRQAPGQGLEWMGRIIPIFGTANYAQKFQGRVTITADESTSTAYMELNSLRSEDTAVYYCARDRWDWNDAFDIWGQGTMVTVSS", "values": [
      {"measurement": "binding result", "setting": "human ferritin (Fer) [6]", "value": "no binding"},
      {"measurement": "OD (450 nm)", "setting": "[7]", "value": 0.215},
      {"measurement": "OD (450 nm)", "setting": "human ovalbumin (OA)", "value": 0.02},
      {"measurement": "OD (450 nm)", "setting": "human ferritin (Fer) [8]", "value": 0.011},
      {"measurement": "binding result", "setting": "[9]", "value": "no binding"},
      {"measurement": "binding result", "setting": "FGFR2 IIIb-Fc", "value": "no binding"}
    ]}
  ]
}
